{"source": "paper PMC9168836", "about": "“Clamping of DNA shuts the condensin neck gate” (Proceedings of the National Academy of Sciences of the …, 2021)", "binders": {"B1": {"name": "Brn1-HA3-His12 (natural protein, budding yeast (S. cerevisiae), UniProt P38170 1-754, looked up)", "chain": "MTTQLRYENNDDDERVEYNLFTNRSTMMANFEEWIKMATDNKINSRNSWNFALIDYFYDLDVLKDGENNINFQKASATLDGCIKIYSSRVDSVTTETGKLLSGLAQRKTNGASNGDDSNGGNGEGLGGDSDEANIEIDPLTGMPISNDPDVNNTRRRVYNRVLETTLVEFETIKMKELDQELIIDPLFKKALVDFDEGGAKSLLLNTLNIDNTARVIFDASIKDTQNVGQGKLQRKEEELIERDSLVDDENEPSQSLISTRNDSTVNDSVISAPSMEDEILSLGMDFIKFDQIAVCEISGSIEQLRNVVEDINQAKDFIENVNNRFDNFLTEEELQAAVPDNAEDDSDGFDMGMQQELCYPDENHDNTSHDEQDDDNVNSTTGSIFEKDLMAYFDENLNRNWRGREHWKVRNFKKANLVNKESDLLEETRTTIGDTTDKNTTDDKSMDTKKKHKQKKVLEIDFFKTDDSFEDKVFASKGRTKIDMPIKNRKNDTHYLLPDDFHFSTDRITRLFIKPGQKMSLFSHRKHTRGDVSSGLFEKSTVSANHSNNDIPTIADEHFWADNYERKEQEEKEKEQSKEVGDVVGGALDNPFEDDMDGVDFNQAFEGTDDNEEASVKLDLQDDEDHKFPIRENKVTYSRVSKKVDVRRLKKNVWRSINNLIQEHDSRKNREQSSNDSETHTEDESTKELKFSDIIQGISKMYSDDTLKDISTSFCFICLLHLANEHGLQITHTENYNDLIVNYEDLATTQAAS", "notes": "Brn1, kleisin subunit of budding yeast (S. cerevisiae) condensin; 754 residues as printed (279/754 traced in the head module map); The tags' end is read from the plasmid's name BRN1-HA3-His12; also called kleisin Brn1"}}, "key": {"Smc4-3xStrepII": {"biological_target": "T1, Smc4-3xStrepII (budding yeast (S. cerevisiae), UniProt Q12267 1-1418)", "T1 construct": "Smc4, SMC subunit of budding yeast (S. cerevisiae) condensin; only the head domain, proximal coiled coil and residues 126-144 are resolved in the maps; The tag's end is read from the plasmid's name SMC4-3xStrepII; also called Scm4", "T1 sequence": "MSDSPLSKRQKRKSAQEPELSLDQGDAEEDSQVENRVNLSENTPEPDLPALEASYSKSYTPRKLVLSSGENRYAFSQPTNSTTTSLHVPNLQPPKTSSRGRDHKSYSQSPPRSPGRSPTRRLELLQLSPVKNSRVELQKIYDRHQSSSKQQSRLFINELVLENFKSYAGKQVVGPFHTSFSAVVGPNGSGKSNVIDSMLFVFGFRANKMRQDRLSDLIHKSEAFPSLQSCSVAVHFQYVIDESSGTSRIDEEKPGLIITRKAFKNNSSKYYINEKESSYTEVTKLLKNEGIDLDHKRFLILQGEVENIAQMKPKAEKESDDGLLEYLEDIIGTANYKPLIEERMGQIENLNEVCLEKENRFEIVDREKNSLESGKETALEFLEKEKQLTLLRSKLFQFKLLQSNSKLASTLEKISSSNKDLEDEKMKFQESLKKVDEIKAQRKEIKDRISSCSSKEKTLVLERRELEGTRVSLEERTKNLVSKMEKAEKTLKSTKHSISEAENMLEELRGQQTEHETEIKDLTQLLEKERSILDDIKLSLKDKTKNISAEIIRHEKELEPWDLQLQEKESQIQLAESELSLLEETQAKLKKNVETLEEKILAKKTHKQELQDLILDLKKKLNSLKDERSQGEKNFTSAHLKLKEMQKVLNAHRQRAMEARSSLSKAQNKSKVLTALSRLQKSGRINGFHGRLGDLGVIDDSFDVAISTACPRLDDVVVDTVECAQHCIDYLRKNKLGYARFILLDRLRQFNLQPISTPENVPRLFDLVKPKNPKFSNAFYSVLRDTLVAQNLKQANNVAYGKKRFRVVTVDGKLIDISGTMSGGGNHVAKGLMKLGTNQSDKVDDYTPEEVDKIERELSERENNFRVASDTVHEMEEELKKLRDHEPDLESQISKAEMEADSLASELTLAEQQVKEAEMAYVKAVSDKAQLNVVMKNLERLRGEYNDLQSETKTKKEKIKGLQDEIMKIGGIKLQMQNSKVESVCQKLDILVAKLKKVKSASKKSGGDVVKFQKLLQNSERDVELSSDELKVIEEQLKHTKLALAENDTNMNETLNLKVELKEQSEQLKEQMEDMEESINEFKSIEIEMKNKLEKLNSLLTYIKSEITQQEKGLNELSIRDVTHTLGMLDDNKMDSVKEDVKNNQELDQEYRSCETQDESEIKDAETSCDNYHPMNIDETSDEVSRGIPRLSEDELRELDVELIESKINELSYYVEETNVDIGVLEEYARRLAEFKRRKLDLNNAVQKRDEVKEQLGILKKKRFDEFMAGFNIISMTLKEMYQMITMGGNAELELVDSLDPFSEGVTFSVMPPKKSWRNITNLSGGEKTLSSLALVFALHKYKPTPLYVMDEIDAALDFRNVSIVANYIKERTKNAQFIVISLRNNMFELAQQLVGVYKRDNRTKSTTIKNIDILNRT", "experiment": "cryo-EM structure; condensin pentamer (Smc2, Smc4, Brn1, Ycs4, Ycg1) with 80-bp dsDNA, 5 mM ADP, 1 mM BeSO4, 10 mM NaF in TNT buffer pH 7.5; separate maps of the clamped head module and of Ycg1-DNA", "settings": "both partners purified"}, "Ycg1": {"biological_target": "T2, Ycg1 (budding yeast (S. cerevisiae), UniProt Q06680 1-1035)", "T2 construct": "Ycg1, HAWK (HEAT repeat) subunit of budding yeast (S. cerevisiae) condensin", "T2 sequence": "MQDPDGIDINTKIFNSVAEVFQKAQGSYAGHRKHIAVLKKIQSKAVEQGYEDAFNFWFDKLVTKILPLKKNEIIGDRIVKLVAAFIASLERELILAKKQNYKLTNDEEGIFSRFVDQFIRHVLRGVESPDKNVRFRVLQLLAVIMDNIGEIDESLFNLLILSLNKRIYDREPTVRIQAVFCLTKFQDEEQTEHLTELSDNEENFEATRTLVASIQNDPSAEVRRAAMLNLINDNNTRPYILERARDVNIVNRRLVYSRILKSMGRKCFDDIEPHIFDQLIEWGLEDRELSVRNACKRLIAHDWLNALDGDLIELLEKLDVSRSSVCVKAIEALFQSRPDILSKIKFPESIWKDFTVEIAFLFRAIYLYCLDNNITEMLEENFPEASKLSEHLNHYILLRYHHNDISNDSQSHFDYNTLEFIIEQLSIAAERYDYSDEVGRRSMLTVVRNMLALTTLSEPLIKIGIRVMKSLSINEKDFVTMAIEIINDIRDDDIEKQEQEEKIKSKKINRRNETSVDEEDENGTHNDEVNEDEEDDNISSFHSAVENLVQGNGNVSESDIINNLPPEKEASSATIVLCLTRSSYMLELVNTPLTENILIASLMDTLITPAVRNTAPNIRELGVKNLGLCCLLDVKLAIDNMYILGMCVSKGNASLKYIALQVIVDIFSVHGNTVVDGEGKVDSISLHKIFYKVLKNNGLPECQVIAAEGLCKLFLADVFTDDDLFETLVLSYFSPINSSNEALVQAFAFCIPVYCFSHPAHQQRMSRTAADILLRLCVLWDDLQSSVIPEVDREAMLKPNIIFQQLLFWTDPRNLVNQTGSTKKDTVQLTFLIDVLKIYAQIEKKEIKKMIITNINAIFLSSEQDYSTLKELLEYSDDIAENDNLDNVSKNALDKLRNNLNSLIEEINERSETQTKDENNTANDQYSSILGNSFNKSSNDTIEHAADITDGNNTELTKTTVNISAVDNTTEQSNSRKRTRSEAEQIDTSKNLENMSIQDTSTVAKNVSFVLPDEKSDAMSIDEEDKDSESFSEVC", "experiment": "cryo-EM structure; condensin pentamer (Smc2, Smc4, Brn1, Ycs4, Ycg1) with 80-bp dsDNA, 5 mM ADP, 1 mM BeSO4, 10 mM NaF in TNT buffer pH 7.5; separate maps of the clamped head module and of Ycg1-DNA", "settings": "both partners purified"}}}
{"binder": "B1", "values": [{"measurement": "binding result", "setting": "Smc4-3xStrepII", "result": "binds"}, {"measurement": "binding result", "setting": "Ycg1", "result": "binds"}]}
